In US20110021367A1 (INDIAN INSTITUTE OF SCIENCE, published 2011):

B1: holo-RslA 1-108 (Zn2+ bound N-terminal cytosolic domain of M. tuberculosis anti-σ^L factor RslA), N-term His-tag (other)
chain: MTMPLRGLGPPDDTGVREVSTGDDHHYAMWDAAYVLGALSAADRREFEAHLAGCPECRGAVTELCGVPALLSQLDRDEVAAISESAPTVVASGLSPELLPSLLAAVHR
modifications: Zn2+ bound in 1:1 stoichiometry (holo, reduced; three free cysteines)
notes: range 1-108; Immobilized on a CM5 chip for SPR; Self-associates into dimers and tetramers in solution; also called Mtb RslA; Rsl1A 1-108; not shown: N-terminal His-tag from pET-Duet1 MCS1
B2: σ^L2 domain of M. tuberculosis σ^L (N-term His-tag σ^L 1-95) (other)
chain: MARVSGAAAAEAALMRALYDEHAAVLWRYALRLTGDAAQAEDVVQETLLRAWQHPEVIGDTARPARAWLFTVARNMIIDERRSARFRNVVGSTDQ
notes: range 1-95; not shown: N-terminal His-tag from pET-Duet1 MCS1

Columns and labels:
[1] = molecular target: the molecule itself; experiment: analytical gel filtration; dynamic light scattering
[2] = molecular target: T1, σ^L 1-177 (Mycobacterium tuberculosis sigma factor L, Rv0735), N-term His-tag (Mycobacterium tuberculosis, UniProt P9WGH5 1-177); experiment: SPR (BIACORE 2000), RslA immobilized on CM5 chip, σ^L as analyte
T1 construct: range 1-177; also called SigL; Mtb σ^L; not shown: N-terminal His-tag from pET-Duet1 MCS1
T1 sequence: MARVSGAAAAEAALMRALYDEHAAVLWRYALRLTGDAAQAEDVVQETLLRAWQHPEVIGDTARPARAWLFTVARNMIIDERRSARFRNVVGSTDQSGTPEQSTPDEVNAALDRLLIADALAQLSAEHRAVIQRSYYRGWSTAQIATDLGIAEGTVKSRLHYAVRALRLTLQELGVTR

[3] = molecular target: B1; experiment: SPR (BIACORE 2000), RslA immobilized on CM5 chip, σ^L2 as analyte

| Binder | binding result [1] | Kd [2] | Kd [3] | fold reduction in affinity against intact σ^L [3] |
| --- | --- | --- | --- | --- |
| B1 | binds | ~0.02 µM |  |  |
| B2 |  |  | ~2 µM | ~100 fold |
